# Measurements taken from US20080095772A1 (Chugai, published 2008).
# Biological target: T1, human PTHrP (1-34) (human)
# T1 construct: Synthetic peptide (Peninsula; Peptide Research Institute), coated on ELISA plates at 1 µg/ml or used in solid phase RIA; also called human parathyroid hormone related protein (1-34)
# Experiment: ELISA on plate-coated human PTHrP (1-34) (1 µg/ml); bound antibody detected with alkaline phosphatase-conjugated goat anti-human IgG; O.D. 405/620
# Protocol: (§1) An ELISA plate for determining antigen binding ability was prepared as follows. Each of the wells of a 96-well plate for ELISA (Maxisorp, NUNC) was coated with 100 μl of a coating buffer supplemented with 1 μg/ml of human PTHrP (1-34) and then blocked with 200 μl of a dilution buffer. Thereafter, into each of the wells, was added a culture supernatant of the COS-7 cells in which the hybrid antibody or humanized antibody was expressed or a solution of the purified hybrid antibody or the purified humanized antibody in stepwise dilution. After incubating at room temperature and washing with PBS-Tween20, 100 μl of alkaline phosphatase-conjugated goat anti-human IgG antibody (TAGO) was added to each of the wells. […] The solution was measured for absorbance at 405 nm using Microplate Reader (Bio Rad).
row,binding result,Binder
1,no binding (tested: about 510 ng/ml),"hH / hLd (antibody, V domains shown, copies: 2 + 2) VH: QVQLVESGGGVVQPGRSLRLSCAASGFTFSSYGMSWVRQAPGKGLEWVATISSGGSYTYYPDSVKGRFTISRDNSKNTLYLQMNSLRAEDTAVYYCARQTTMTYFAYWGQGTLVTVSS VL: QLVLTQSPSASASLGASVKLTCTLSSQHSTYTIEWHQQQPEKGPRYLMKLKQDGSHSTGDGIPDRFSGSSSGAERYLTISSLQSEDEADYICGVGDTIKEQFVYVFGGGTKLTVL"
2,no binding (tested: about 460 ng/ml),"hH / hLc (antibody, V domains shown, copies: 2 + 2) VH: QVQLVESGGGVVQPGRSLRLSCAASGFTFSSYGMSWVRQAPGKGLEWVATISSGGSYTYYPDSVKGRFTISRDNSKNTLYLQMNSLRAEDTAVYYCARQTTMTYFAYWGQGTLVTVSS VL: QLVLTQSPSASASLGASVKLTCTLSSQHSTYTIEWHQQQPEKGPRYLMKLKQDGSHSTGDGIPDRFSGSSSGAERYLTISSLQPEDEADYYCGVGDTIKEQFVYVFGGGTKLTVL"
3,no binding (tested: about 370 ng/ml),"hH / hLb (antibody, V domains shown, copies: 2 + 2) VH: QVQLVESGGGVVQPGRSLRLSCAASGFTFSSYGMSWVRQAPGKGLEWVATISSGGSYTYYPDSVKGRFTISRDNSKNTLYLQMNSLRAEDTAVYYCARQTTMTYFAYWGQGTLVTVSS VL: QLVLTQSPSASASLGASVKLTCTLSSQHSTYTIEWHQQQPEKPPRYLMDLKQDGSHSTGDGIPDRFSGSSSGAERYLTISSLQSEDEADYYCGVGDTIKEQFVYVFGGGTKLTVL"

# Biological target: T1, human PTHrP (1-34)
# Experiment: as above
# Remark: another data set of the same source
# Protocol: as §1
row,binding result,Binder
1,no binding (tested: about 1650 ng/ml),"hH / hLn (antibody, V domains shown, copies: 2 + 2) VH: QVQLVESGGGVVQPGRSLRLSCAASGFTFSSYGMSWVRQAPGKGLEWVATISSGGSYTYYPDSVKGRFTISRDNSKNTLYLQMNSLRAEDTAVYYCARQTTMTYFAYWGQGTLVTVSS VL: QLVLTQSPSASASLGASVKLTCTLSSQHSTYTIEWYQQQPEKGPRYVMKLKQDGSHSTGDGIPDRFSGSSSGAERYLTISSLQSEDEADYYCGVGDTIKEQFVYVFGGGTKLTVL"
2,binds,"humanized #23-57-137-1 antibody, H chain version a, L chain version l (antibody, V domains shown, Human Cγ1 and human Cλ C regions; Expressed in COS-7) VH: QVQLVESGGGVVQPGRSLRLSCAASGFTFSSYGMSWVRQAPGKGLEWVATISSGGSYTYYPDSVKGRFTISRDNSKNTLYLQMNSLRAEDTAVYYCARQTTMTYFAYWGQGTLVTVSS VL: QLVLTQSPSASASLGASVKLTCTLSSQHSTYTIEWYQQQPEKGPKYVMDLKQDGSHSTGDGIPDRFSGSSSGAERYLTISSLQSEDEADYYCGVGDTIKEQFVYVFGGGTKLTVLG"
3,binds,"humanized #23-57-137-1 antibody, H chain version a, L chain version o (antibody, V domains shown, Human Cγ1 and human Cλ C regions; Expressed in COS-7) VH: QVQLVESGGGVVQPGRSLRLSCAASGFTFSSYGMSWVRQAPGKGLEWVATISSGGSYTYYPDSVKGRFTISRDNSKNTLYLQMNSLRAEDTAVYYCARQTTMTYFAYWGQGTLVTVSS VL: QLVLTQSPSASASLGASVKLTCTLSSQHSTYTIEWYQQQPEKGPRYVMDLKQDGSHSTGDGIPDRFSGSSSGAERYLTISSLQSEDEADYYCGVGDTIKEQFVYVFGGGTKLTVLG"

# Biological target: T1, human PTHrP (1-34)
# Experiment: as above
# Remark: another data set of the same source
# Protocol: as §1
row,binding result,Binder
1,binds,"humanized #23-57-137-1 antibody, H chain version a, L chain version s (antibody, V domains shown) VH: QVQLVESGGGVVQPGRSLRLSCAASGFTFSSYGMSWVRQAPGKGLEWVATISSGGSYTYYPDSVKGRFTISRDNSKNTLYLQMNSLRAEDTAVYYCARQTTMTYFAYWGQGTLVTVSS VL: QLVLTQSPSASASLGASVKLTCTLSSQHSTYTIEWYQQQPEKGPKYVMDLKQDGSHSTGDGIPDRFSGSSSGAERYLTISSLQSEDEADYICGVGDTIKEQFVYVFGGGTKLTVLG"
2,binds,"humanized #23-57-137-1 antibody, H chain version a, L chain version r (antibody, V domains shown) VH: QVQLVESGGGVVQPGRSLRLSCAASGFTFSSYGMSWVRQAPGKGLEWVATISSGGSYTYYPDSVKGRFTISRDNSKNTLYLQMNSLRAEDTAVYYCARQTTMTYFAYWGQGTLVTVSS VL: QLVLTQSPSASASLGASVKLTCTLSSQHSTYTIEWYQQQPEKGPRYLMDLKQDGSHSTGDGIPDRFSGSSSGAERYLTISSLQSEDEADYICGVGDTIKEQFVYVFGGGTKLTVLG"
3,binds,"humanized #23-57-137-1 antibody, H chain version a, L chain version t (antibody, V domains shown, Human Cγ1 and human Cλ C regions; Expressed in COS-7) VH: QVQLVESGGGVVQPGRSLRLSCAASGFTFSSYGMSWVRQAPGKGLEWVATISSGGSYTYYPDSVKGRFTISRDNSKNTLYLQMNSLRAEDTAVYYCARQTTMTYFAYWGQGTLVTVSS VL: QLVLTQSPSASASLGASVKLTCTLSSQHSTYTIEWYQQQPEKGPRYVMDLKQDGSHSTGDGIPDRFSGSSSGAERYLTISSLQSEDEADYICGVGDTIKEQFVYVFGGGTKLTVLG"
